Assay results taken from US20240209100A1 (DIAGONAL THERAPEUTICS, published 2024).

T1: IL-18 receptor (IL-18Rα/IL-18Rβ) overexpressed on HEK-Blue IL-18 cells (Homo sapiens (Human), UniProt Q13478 19-541; O95256 20-599)
T1 sequence 1: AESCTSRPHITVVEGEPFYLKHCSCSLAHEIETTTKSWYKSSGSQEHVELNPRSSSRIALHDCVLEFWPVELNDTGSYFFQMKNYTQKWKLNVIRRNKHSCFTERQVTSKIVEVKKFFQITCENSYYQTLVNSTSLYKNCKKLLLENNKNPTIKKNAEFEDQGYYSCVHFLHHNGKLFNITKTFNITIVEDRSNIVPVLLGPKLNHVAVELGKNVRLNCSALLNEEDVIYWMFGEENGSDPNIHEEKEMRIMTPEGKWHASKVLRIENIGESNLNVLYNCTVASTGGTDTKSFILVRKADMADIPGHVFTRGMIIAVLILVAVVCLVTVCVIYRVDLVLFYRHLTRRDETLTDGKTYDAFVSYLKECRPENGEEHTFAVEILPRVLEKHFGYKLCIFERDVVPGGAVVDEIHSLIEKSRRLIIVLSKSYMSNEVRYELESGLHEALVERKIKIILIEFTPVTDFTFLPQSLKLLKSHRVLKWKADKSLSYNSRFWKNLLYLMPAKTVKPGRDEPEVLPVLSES
T1 sequence 2: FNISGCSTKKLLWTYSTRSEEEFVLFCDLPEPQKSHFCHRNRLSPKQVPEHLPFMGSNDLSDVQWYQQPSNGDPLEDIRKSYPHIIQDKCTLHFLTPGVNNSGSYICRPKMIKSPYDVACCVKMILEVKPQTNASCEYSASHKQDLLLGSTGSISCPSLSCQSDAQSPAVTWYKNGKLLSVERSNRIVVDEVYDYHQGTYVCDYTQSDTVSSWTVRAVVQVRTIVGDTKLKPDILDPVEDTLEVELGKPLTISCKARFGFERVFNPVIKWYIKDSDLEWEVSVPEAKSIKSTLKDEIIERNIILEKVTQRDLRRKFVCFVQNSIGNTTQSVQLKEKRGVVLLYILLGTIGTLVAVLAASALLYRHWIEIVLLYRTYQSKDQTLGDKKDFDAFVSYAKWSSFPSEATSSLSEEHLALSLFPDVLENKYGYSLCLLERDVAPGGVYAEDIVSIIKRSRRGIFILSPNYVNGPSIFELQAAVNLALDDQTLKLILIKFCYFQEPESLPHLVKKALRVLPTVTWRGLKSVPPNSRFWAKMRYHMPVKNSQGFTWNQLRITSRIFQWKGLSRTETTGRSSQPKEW

B1: DGL092 (bispecific antibody, V domains shown)
V domain 1: QVQLVESGGGLVQAGGSLRLSCAASGRTFSKHAMGWFRQAPGKEREFVAAIDWSGGSTYYADSVKGRFTISRDNAKNTVYLQMDSLKPEDTAVYYCAADSYTDYAQLWLPELESEYDYWGQGTQVTVSS
V domain 2: EVQLVESGGGLVQAGGSLRLSCAASGRTFRNYHMGWFRQAPGQEREFVAAISSSGGKTSYPDSVNGRFTISRDNAKNTVYLQMNNLKVEDTAVYYCAADPRYWVAAGGSEPENVEVWGQGTLVTVSS
B2: DGL209 (bispecific antibody)
heavy 1: QVQLVESGGGLVQAGGSLRLSCAASGRTFSKHAMGWFRQAPGKEREFVAAIDWSGGSTYYADSVKGRFTISRDNAKNTVYLQMDSLKPEDTAVYYCAADSYTDYAQLWLPELESEYDYWGQGTLVTVSSPLAPCPPCPAPEAAGAPSVFLFPPKPKDTLMISRTPEVTCVVVDVSHEDPEVKFNWYVDGVEVHNAKTKPREEQYNSTYRVVSVLTVLHQDWLNGKEYKCKVSNKALPAPIEKTISKAKGQPREPQVCTLPPSRDELTKNQVSLSCAVKGFYPSDIAVEWESNGQPENNYKTTPPVLDSDGSFFLVSKLTVDKSRWQQGNVFSCSVMHEALHNHYTQKSLSLSPGWSHPQFEK
heavy 2: QLQLVESGGGLVQAGGSLRLSCAASRSITFSHNVMGWYRQAPGKQRELVASIGSGGSTNYVDSVKGRATISRDNAKKTVYLQMNSLKPEDTAVYYCGVVVGVYRGSLGQGTLVTVSSPLAPCPPCPAPEAAGAPSVFLFPPKPKDTLMISRTPEVTCVVVDVSHEDPEVKFNWYVDGVEVHNAKTKPREEQYNSTYRVVSVLTVLHQDWLNGKEYKCKVSNKALPAPIEKTISKAKGQPREPQVYTLPPCRDELTKNQVSLWCLVKGFYPSDIAVEWESNGQPENNYKTTPPVLDSDGSFFLYSKLTVDKSRWQQGNVFSCSVMHEALHNHYTQKSLSLSPGEPEA
B3: DGL049 (bispecific antibody, V domains shown)
V domain 1: QVQLQESGGGLVQAGGSLRLSCIVSGSIVRIDFMGWYRQAPGKKRDMVATITTGGSTNYADSVKDRFTISRDNAKNTLSLQVNDLKPEDTAVYYCNSVVHTTSRPPVLYWGQGTQVTVSS
V domain 2: QVQLVESGGDLVLPGGSLKLSCEASGSISSRNSMAWYRRAPGKQRELVAAISSISSGGRTDYADFVKGRFTIFRDTAKNMVYLQMNNLKPEDTAVYDCDDPIRVASLAYDDWGQGTQVTVSS
B4: DGL210 (bispecific antibody)
heavy 1: QVQLVESGGGLVQAGGSLRLSCAASGRTFSKHAMGWFRQAPGKEREFVAAIDWSGGSTYYADSVKGRFTISRDNAKNTVYLQMDSLKPEDTAVYYCAADSYTDYAQLWLPELESEYDYWGQGTLVTVSSGGGGSGGGGSGGGGSGGGGSCPPCPAPEAAGAPSVFLFPPKPKDTLMISRTPEVTCVVVDVSHEDPEVKFNWYVDGVEVHNAKTKPREEQYNSTYRVVSVLTVLHQDWLNGKEYKCKVSNKALPAPIEKTISKAKGQPREPQVCTLPPSRDELTKNQVSLSCAVKGFYPSDIAVEWESNGQPENNYKTTPPVLDSDGSFFLVSKLTVDKSRWQQGNVFSCSVMHEALHNHYTQKSLSLSPGWSHPQFEK
heavy 2: QLQLVESGGGLVQAGGSLRLSCAASRSITFSHNVMGWYRQAPGKQRELVASIGSGGSTNYVDSVKGRATISRDNAKKTVYLQMNSLKPEDTAVYYCGVVVGVYRGSLGQGTLVTVSSGGGGSGGGGSGGGGSGGGGSCPPCPAPEAAGAPSVFLFPPKPKDTLMISRTPEVTCVVVDVSHEDPEVKFNWYVDGVEVHNAKTKPREEQYNSTYRVVSVLTVLHQDWLNGKEYKCKVSNKALPAPIEKTISKAKGQPREPQVYTLPPCRDELTKNQVSLWCLVKGFYPSDIAVEWESNGQPENNYKTTPPVLDSDGSFFLYSKLTVDKSRWQQGNVFSCSVMHEALHNHYTQKSLSLSPGEPEA
B5: DGL212 (bispecific antibody)
heavy 1: QVQLVESGGGLVQAGGSLRLSCAASGRTFSKHAMGWFRQAPGKEREFVAAIDWSGGSTYYADSVKGRFTISRDNAKNTVYLQMDSLKPEDTAVYYCAADSYTDYAQLWLPELESEYDYWGQGTLVTVSSDKTHTCPPCPAPEAAGAPSVFLFPPKPKDTLMISRTPEVTCVVVDVSHEDPEVKFNWYVDGVEVHNAKTKPREEQYNSTYRVVSVLTVLHQDWLNGKEYKCKVSNKALPAPIEKTISKAKGQPREPQVCTLPPSRDELTKNQVSLSCAVKGFYPSDIAVEWESNGQPENNYKTTPPVLDSDGSFFLVSKLTVDKSRWQQGNVFSCSVMHEALHNHYTQKSLSLSPGWSHPQFEK
heavy 2: not shown
B6: DGL213 (bispecific antibody)
heavy 1: B5 heavy 1
heavy 2: QLQLVESGGGLVQAGGSLRLSCAASRSITFSHNVMGWYRQAPGKQRELVASIGSGGSTNYVDSVKGRATISRDNAKKTVYLQMNSLKPEDTAVYYCGVVVGVYRGSLGQGTLVTVSSCPPCPAPEAAGAPSVFLFPPKPKDTLMISRTPEVTCVVVDVSHEDPEVKFNWYVDGVEVHNAKTKPREEQYNSTYRVVSVLTVLHQDWLNGKEYKCKVSNKALPAPIEKTISKAKGQPREPQVYTLPPCRDELTKNQVSLWCLVKGFYPSDIAVEWESNGQPENNYKTTPPVLDSDGSFFLYSKLTVDKSRWQQGNVFSCSVMHEALHNHYTQKSLSLSPGEPEA
B7: DGL211 (bispecific antibody)
heavy 1: QVQLVESGGGLVQAGGSLRLSCAASGRTFSKHAMGWFRQAPGKEREFVAAIDWSGGSTYYADSVKGRFTISRDNAKNTVYLQMDSLKPEDTAVYYCAADSYTDYAQLWLPELESEYDYWGQGTLVTVSSEKSYGPPCPPCPAPEAAGAPSVFLFPPKPKDTLMISRTPEVTCVVVDVSHEDPEVKFNWYVDGVEVHNAKTKPREEQYNSTYRVVSVLTVLHQDWLNGKEYKCKVSNKALPAPIEKTISKAKGQPREPQVCTLPPSRDELTKNQVSLSCAVKGFYPSDIAVEWESNGQPENNYKTTPPVLDSDGSFFLVSKLTVDKSRWQQGNVFSCSVMHEALHNHYTQKSLSLSPGWSHPQFEK
heavy 2: QLQLVESGGGLVQAGGSLRLSCAASRSITFSHNVMGWYRQAPGKQRELVASIGSGGSTNYVDSVKGRATISRDNAKKTVYLQMNSLKPEDTAVYYCGVVVGVYRGSLGQGTLVTVSSEKSYGPPCPPCPAPEAAGAPSVFLFPPKPKDTLMISRTPEVTCVVVDVSHEDPEVKFNWYVDGVEVHNAKTKPREEQYNSTYRVVSVLTVLHQDWLNGKEYKCKVSNKALPAPIEKTISKAKGQPREPQVYTLPPCRDELTKNQVSLWCLVKGFYPSDIAVEWESNGQPENNYKTTPPVLDSDGSFFLYSKLTVDKSRWQQGNVFSCSVMHEALHNHYTQKSLSLSPGEPEA
B8: DGL208 (bispecific antibody)
heavy 1: QVQLVESGGGLVQAGGSLRLSCAASGRTFSKHAMGWFRQAPGKEREFVAAIDWSGGSTYYADSVKGRFTISRDNAKNTVYLQMDSLKPEDTAVYYCAADSYTDYAQLWLPELESEYDYWGQGTLVTVSSPLAPDKTHTCPPCPAPEAAGAPSVFLFPPKPKDTLMISRTPEVTCVVVDVSHEDPEVKFNWYVDGVEVHNAKTKPREEQYNSTYRVVSVLTVLHQDWLNGKEYKCKVSNKALPAPIEKTISKAKGQPREPQVCTLPPSRDELTKNQVSLSCAVKGFYPSDIAVEWESNGQPENNYKTTPPVLDSDGSFFLVSKLTVDKSRWQQGNVFSCSVMHEALHNHYTQKSLSLSPGWSHPQFEK
heavy 2: not shown
B9: DGL094 (bispecific antibody, V domains shown)
V domain 1: QVQLVESGGGLVQAGGSLRLSCAASGRTFSSYTMGWFRQAPGKEREFVAAISWSAGRTYYADSVKGRFTISRDNAKNTVYLQMNSLKPEDTAVYFCAAEEAPDWAPIDCSGYGCLSLYDYWGQGTQVTVSS
V domain 2: QVQLVESGGGLVLPGESLRLSCVVSGTIDNINSMGWYRQAPGKQRELVAYITKLGSANYADSVEGRFTISRDNAKKTVHLQMNSLKPEDTAVYYCHANERGRITWAQGTQVTVSS
B10: DGL097 (bispecific antibody, V domains shown)
V domain 1: QVQLVESGGGLVQAGGSLRLSCAASGRTFSSYDMGWFRQAPGKEREFVAALRWSGGSTSYADSVKGRFTISRDNAKNTVYLHMNSLKPEDTAVYYCAATLETDSGTYWADYWGQGTQVTVSS
V domain 2: QVQLVESGGGLVQAGGSLRLSCVASGTFFQIHVMGWYRQAPGKQRELVAFIINNGGTRYADSVKGRFTISRDYAKNTVYLQMNSLKPEDTAVYYCNTEGTYRGRYSTDNWGQGTQVTVSS

What was measured:
[1] = molecular target: T1, IL-18 receptor (IL-18Rα/IL-18Rβ) …; assay: cell-based or functional assay
[2] = molecular target: T1, IL-18 receptor (IL-18Rα/IL-18Rβ) …; assay: cell-based or functional assay; remark: listed apart in the source

Row | Binder | HEK-Blue IL-18: Abs405 (Emax) [1] [Abs] | HEK-Blue IL-18: EC50 [1] [nM] | HEK-Blue IL-18: Abs 405 at 100 nM [2] [Abs] | HEK-Blue IL-18: Fold over Background [2] [fold]
1 | B1 | 0.61 | 0.019 | – | –
2 | B2 | – | – | 2 | 8.7
3 | B3 | 0.34 | 0.01 | – | –
4 | B4 | – | – | 1.1 | 4.6
5 | B5 | – | – | 1.4 | 6.2
6 | B6 | – | – | 1.5 | 6.4
7 | B7 | – | – | 1.5 | 6.7
8 | B8 | – | – | 1.4 | 5.9
9 | B9 | 0.7 | 0.019 | – | –
10 | B10 | 0.45 | 0.014 | – | –
